This is an account of results in article PMC6530996, “HspB1 phosphorylation regulates its intramolecular dynamics and mechanosensitive molecular chaperone interaction with filamin C” (Science Advances, 2019).

Assay [1] deals with T1, FLNCd18–21 (Homo sapiens, UniProt Q14315).
T1 construct: WT, residues 1943 to 2408 from UniProt ID Q14315; 6xHis (C); EEF (C); made in house; host or cells: E. coli BL21(DE3) pLysS
T1 sequence (Q14315 1943-2408): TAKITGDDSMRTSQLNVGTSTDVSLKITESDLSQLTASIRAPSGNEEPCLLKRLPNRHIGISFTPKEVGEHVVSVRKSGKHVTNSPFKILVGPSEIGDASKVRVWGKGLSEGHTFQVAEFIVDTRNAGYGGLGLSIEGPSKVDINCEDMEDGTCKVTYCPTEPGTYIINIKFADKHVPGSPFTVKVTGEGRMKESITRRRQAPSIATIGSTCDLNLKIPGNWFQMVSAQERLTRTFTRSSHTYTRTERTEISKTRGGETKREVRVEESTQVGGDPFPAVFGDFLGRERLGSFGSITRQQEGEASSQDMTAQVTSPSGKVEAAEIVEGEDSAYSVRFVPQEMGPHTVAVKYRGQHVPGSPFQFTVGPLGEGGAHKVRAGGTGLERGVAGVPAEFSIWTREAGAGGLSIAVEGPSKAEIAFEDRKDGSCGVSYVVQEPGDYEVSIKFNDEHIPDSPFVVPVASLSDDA
As to the kind of experiment: native MS peptide titration / complex detection with FLNCd18–21. The format is binding. Particulars: for complex formation with FLNCd18–21: native MS, 200 mM ammonium acetate pH 6.9, peptides at 30 μM with 5 μM FLNCd18–21 (fig. S5D). The text has this: To isolate a stable HspB1-FLNCd18–21 complex and localize the binding within HspB1, we performed native ion mobility MS (IM-MS) experiments. […] Next, we mixed FLNCd18–21 with either HspB1_84–171 or peptides mimicking the PPR, because this region is phosphorylated in the MLP KO mice (Fig. 1C) and generally upon biomechanical stress ([26]) and becomes exposed thereafter. This strategy of using segments of HspB1 meant that we could avoid the problems of insolubilization of the full-length protein upon interaction with FLNC d18–21, as well as generally mitigate the confounding effects associated with the chaperone’s intrinsic polydispersity.
By quantifying the relative abundances of FLNCd18–21 and the peptide-bound species, we could determine binding affinities (Fig. 4B, lower panel, and fig. S4G). We obtained similar dissociation constants (KDs) of 130 ± 17 μM (HspB1_80–88) and 110 ± 10 μM (^PHspB1_80–88), indicating weak binding that is not affected substantially by phosphorylation. These findings contrast with the notable effect of HspB1 phosphomimicry on the interaction of full-length chaperone with the FLNC fragment (Fig. 1E). However, they can be rationalized by phosphorylation increasing the effective concentration of the binding region by modulating its conformational state (Fig. 2B and fig. S3) and leading to dimer (Fig. 2D) and oligomer disassembly ([22], [23]). To localize binding of HspB1_80–88 to domains with Ig folds or to the d20 insertion (which is possibly disordered), we prepared a modified FLNC construct lacking the 82 insertion residues (FLNCd18–21,ΔI).
The region of human FLNC comprising domains 18 to 21 (WT, residues 1943 to 2408 from UniProt ID Q14315; ∆I, residues 1943 to 2408 excluding 2163 to 2243) was encoded in a modified pET23a/EEF with C-terminal 6× His and EEF tags. The plasmid was transformed into E. coli BL21(DE3) pLysS cells (Agilent). To generate the Mβ construct, mutations E2136R and I2138E were introduced by site-directed mutagenesis. Cells were grown in LB at 37°C until an OD600 of 0.6 to 0.8 was reached. […] Purity was assessed by SDS-PAGE, and protein was stored in MS buffer at −80°C and used for experiments within 2 weeks of purification, after noticing in initial preparations some propensity for destabilization and aggregation following long-term storage. […]
Because HspB1 can form disulfide-linked dimers, experiments involving the ACD were performed in the presence of 10-fold molar excess DTT. […] Native MS and IM-MS data were recorded on a Synapt G1 mass spectrometer (Waters) modified for the transmission of intact noncovalent protein complexes. HspB1_77–171 variants were analyzed at a concentration of 10 μM in 200 mM ammonium acetate (pH 6.9). […]

The next assay relates to EEF-tagged FLNCd18–21. Kind of assay: coimmunoprecipitation of recombinant proteins. The format is binding, human. Particulars: T7 antibody pull-down, 1 μg HspB1, 10 μg FLNCd18–21, 1 hour, room temperature. The procedure:
(§1) Next, to validate the interaction in vitro, we expressed EEF-tagged human FLNC domains 18 to 21, encompassing the apparent HspB1 binding site ([16]), and full-length human HspB1 attached to a T7 tag. […] To investigate the effect of HspB1 phosphorylation on the interaction, we expressed WT human HspB1 and ^3PHspB1, a triple mutant containing phosphomimetic Ser to Asp substitutions at residues 15, 78, and 82. Upon incubation with FLNCd18–21 in vitro, we noticed that mixtures accumulated insoluble protein aggregates, while isolated proteins remained soluble. […] The results support an interaction between HspB1 and FLNCd18–21 to form large complexes that can be modulated by phosphorylation of HspB1.
T7-tagged purified recombinant HspB1 protein (1 μg) was added to 10 μg of EEF-tagged recombinant FLNCd18–21 in immunoprecipitation (IP) buffer [0.05% Triton X-100, 1% bovine serum albumin, protease inhibitors (Roche mini complete EDTA-free tablets) in phosphate-buffered saline (PBS)] and incubated for 1 hour, shaking at room temperature. This was followed by another 30-min incubation, shaking at room temperature after the addition of 0.5 μg of anti-T7 (69522, Novagen) or mouse IgG2b isotype (ab18457, Abcam) antibody. Next, 25 μl of protein G Sepharose resin (PC-G5, Generon) was added to each tube and incubated for 1 hour, shaking at room temperature. […]

Assay [2] addresses T1, FLNCd18–21. Kind of assay: SDS-PAGE aggregation assay with FLNCd18–21. The format is biochemical. The following applies: 80 μM HspB1 + 40 μM FLNCd18–21 (2:1), 200 mM ammonium acetate pH 6.9, 500 μM DTT, 25°C, 90 min, densitometry. The procedure:
as §1
HspB1 (WT or 3P) was mixed with FLNCd18–21 at a 2:1 ratio (80 and 40 μM, respectively) in 200 mM ammonium acetate (pH 6.9) with 500 μM DTT and incubated at 25°C for 90 min. Aliquots were removed periodically and pelleted at 13,000g at 10°C for 10 min. Soluble fractions were diluted threefold with 200 mM ammonium acetate for analysis by SDS-PAGE, and pellets were resuspended in the same volume of 200 mM ammonium acetate and solubilized upon addition of the SDS-PAGE loading buffer. Gel bands were quantified by densitometry, using the raw intensities of FLNC and HspB1 bands to extract relative soluble and insoluble proportions at each time point.

The target in assay [3] is T2, human FLNC domains 18 to 21 (FLNC_(d18–21)), EEF-tagged (human, UniProt Q14315 1943-2408).
T2 construct: human filamin C, domains 18 to 21, residues 1943 to 2408 of UniProt Q14315; Modified pET23a/EEF vector; No cleavage of the tags is described; also called FLNC fragment; source: E. coli BL21(DE3) pLysS, purified (HisTrap, SEC Superdex 200); not shown: EEF, C-terminal, kept
T2 sequence (looked up): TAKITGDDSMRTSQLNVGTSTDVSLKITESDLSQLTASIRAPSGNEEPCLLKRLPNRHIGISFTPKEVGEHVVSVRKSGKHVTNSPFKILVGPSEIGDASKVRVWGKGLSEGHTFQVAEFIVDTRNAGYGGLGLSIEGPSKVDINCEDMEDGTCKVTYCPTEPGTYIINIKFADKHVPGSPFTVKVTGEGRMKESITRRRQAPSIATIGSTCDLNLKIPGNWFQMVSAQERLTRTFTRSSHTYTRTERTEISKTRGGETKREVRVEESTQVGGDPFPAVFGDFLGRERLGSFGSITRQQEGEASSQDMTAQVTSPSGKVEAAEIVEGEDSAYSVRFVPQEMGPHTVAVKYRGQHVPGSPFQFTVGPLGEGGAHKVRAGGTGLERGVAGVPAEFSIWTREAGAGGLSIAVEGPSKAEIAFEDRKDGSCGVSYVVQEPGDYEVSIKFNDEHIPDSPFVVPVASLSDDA
Kind of assay: native MS; native IM-MS of mixtures of FLNC_(d18–21) or FLNC_(d18–21,ΔI) with HspB1_(84–171), HspB1 peptides or an excess of control peptides; 200 mM ammonium acetate pH 6.9. Particulars: both partners purified.

Assay [4] has as its target T2, human FLNC domains 18 to 21 …. Kind of assay: native MS; titration: FLNC_(d18–21) constant at 5 μM, peptide 5 to 160 μM, 200 mM ammonium acetate pH 6.9, acetonitrile vapor; fit with three equivalent binding sites (UniDec). The following applies: both partners purified.
Assay [5] shares this target. As to the kind of experiment: cell-based or functional assay.

No end group written: not given here. A value given as a limit tells only on which side of the number the result lay.

Take “HspB1_84–171: Human HspB1 α-crystallin domain (ACD)”: the “complex formation with FLNCd18–21” value is given as “Complexes were not observed” with FLNCd18–21 [1] and “No complex is observed” in the assay with FLNCd18–21 [1] (listed as HspB184-171). “HspB1_177–186: Peptide from human HspB1, C-terminal residues 177 to 186 (NEITIPVTFE; UniProt P04792 177-186, looked up, fragment) [reference compound]”: the “complex formation with FLNCd18–21” value with FLNCd18–21 [1] is “No appreciable complex is detected”. For the molecule QLSSGVSEI [HspB1_80–88], the Kd on FLNCd18–21 [1] (native MS titration, 5 μM FLNCd18–21, 5 to 160 μM peptide, 200 mM ammonium acetate pH 6.9, minimum three technical repeats, model of three equivalent binding sites, 500 bootstraps, apparent KD, read-out: dissociation constant KD (apparent)) was > 100 µM. In the case of “T7-tagged HspB1: Full-length WT HspB1 with an N-terminal T7 tag”, the “coimmunoprecipitation of FLNCd18–21” value was “pulled down both HspB1 and FLNCd18–21” with EEF-tagged FLNCd18–21; “confirming a direct interaction” in the assay on EEF-tagged FLNCd18–21 (listed as full-length human HspB1 attached to a T7 tag). Regarding WT human HspB1: Full-length WT HspB1, the “migration to pelleted fraction of mixture with FLNCd18–21” value with FLNCd18–21 [2] is “both proteins migrated to the pelleted fraction over time”.

Consider “^3PHspB1: Full-length human HspB1 with Ser to Asp phosphomimic substitutions at residues 15, 78 and 82”, for which the “migration to pelleted fraction of mixture with FLNCd18–21” value with FLNCd18–21 [2] is “substantially increased by phosphomimicry”.

B1: ^PHspB1_(80–88) phosphorylated peptide (peptide, UniProt P04792 80-88, looked up)
peptide: QLSSGVSEI
modifications: also: phosphorylated, site not given here
notes: N-terminal acetylation open as for m13; also called phosphopeptide; source: synthetic peptide, bought: Biomatik
Regarding B1, the stoichiometry N (usually the number of molecules, sites or subunits per partner or assembly) in assay [3] was ≤ 2. In assay [4], the Kd is 110 ± 10 µM and the “stoichiometry N” value is ≤ 3. Further, in assay [5], the “activation required for the transition of unfolding intermediate B to final state C of FLNC_(d18–21) with one peptide bound (coulombically steered unfolding, IM-MS)” value is ~75 V.
